# Laboratory results reported in the supplement of paper PMC9732359.
# ± gives the uncertainty stated by the source.
# Assay: protein stability index of a GFP-peptide fusion (yeast GPS) (PSI 1-4); higher = more stable; sorted into four equal gates, so the index is relative within each strain
# Procedure, shortened: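 Peptides tiling yeast proteins in 17-residue segments were fused downstream of GFP, with Cherry expressed from the same plasmid. As a pooled library in yeast, mid-log cultures grown in leucine-free medium were sorted into four equal gates by GFP/Cherry fluorescence ratio. Gate plasmids were PCR-amplified and Illumina-sequenced, and barcodes linked reads to strains. Each peptide received a protein stability index equal to the sum of each gate's read frequency times its gate number.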
Sequence,protein stability index (doa10∆),protein stability index (pdr5∆),protein stability index (san1∆),protein stability index (ubr1∆)
SYQPMYQRPMQVQGQQQ [SSN3],1.46 ± 0.043,1.71 ± 0.06,1.92 ± 0.11,1.89 ± 0.054
KTLTEEVTKSSHVENLE [YIL149C/MLP2],2.81 ± 0.053,2.94 ± 0.053,2.86 ± 0.051,3.13 ± 0.035
WTMAFRTMDDIKDSVRE [ECM29],–,2.5 ± 0.16,2.67 ± 0.11,2.66 ± 0.12
ALECRLASAIASGLLRA [CSN12],1.58 ± 0.072,2.08 ± 0.082,1.77 ± 0.1,1.94 ± 0.075
IKSIIEQRKQKLSKILP [SMC3],2.44 ± 0.084,2.7 ± 0.091,2.52 ± 0.081,2.82 ± 0.078
GNPYIELNQDRLGGDDL [SNF5],3.05 ± 0.092,3.24 ± 0.098,3.03 ± 0.11,3.27 ± 0.049
VLIKKGQSAGKLAAIVE [RPL14A],2.99 ± 0.2,3.14 ± 0.16,–,2.77 ± 0.18
AFVEFGASVIAGGQRIV [SWP82],2.21 ± 0.13,2.35 ± 0.1,2.02 ± 0.1,2.07 ± 0.085
FKVQELLHSKPSLLLQK [NAS6],2.23 ± 0.13,2.3 ± 0.074,2.64 ± 0.14,2.31 ± 0.084
LVTPKSFLFDVLKTLEY [NUT1],2.91 ± 0.18,2.98 ± 0.18,3.1 ± 0.15,2.92 ± 0.18
EGQLKPGDGSSYINVTF [RPC25],3.44 ± 0.15,3.12 ± 0.15,2.77 ± 0.19,3.02 ± 0.11
FGRTLASVTKEILGTAQ [RPL12A],1.46 ± 0.1,1.53 ± 0.047,1.38 ± 0.084,1.62 ± 0.078
HGHLGFLPRKRAASIRA [RPL3],2.1 ± 0.086,2.44 ± 0.067,2.79 ± 0.055,2.2 ± 0.077
QVEYALEAIKQGSVTVG [PRE5],2.92 ± 0.12,3.33 ± 0.21,3.14 ± 0.17,3.09 ± 0.18
HPWEQAKEVKVLYHTSG [PRP8],2.81 ± 0.23,2.78 ± 0.14,3.03 ± 0.085,2.9 ± 0.091
KPKAVARKSKEEREAAA [RPC53],2.57 ± 0.19,3.12 ± 0.1,2.61 ± 0.15,2.64 ± 0.17
RAFQKQPHIFNNPKVKT [RPS11A],2.33 ± 0.052,2.48 ± 0.043,2.59 ± 0.044,2.21 ± 0.028
DQTFPINCNKETIENVK [ECM29],3.17 ± 0.082,2.93 ± 0.099,3.08 ± 0.07,3.4 ± 0.088
PAFKPTEKKFTKEQYAA [RPL5],2.93 ± 0.089,3.12 ± 0.083,2.79 ± 0.067,3.04 ± 0.1
TGAASNQSSFNFGNNGA [YOR098C/NUP1],2.65 ± 0.11,2.79 ± 0.099,2.5 ± 0.096,2.93 ± 0.074
GAETDELSMIMEHFSQQ [RPS12],2.88 ± 0.088,3.25 ± 0.1,3.35 ± 0.059,3.23 ± 0.089
VSLTQLRCVKYLQETAI [RPC82],1.82 ± 0.14,2.18 ± 0.1,–,3.1 ± 0.28
SKQTPQPKAPRAPKVIH [ISW2],2.91 ± 0.05,3.14 ± 0.054,2.93 ± 0.041,3.14 ± 0.047
NKGLVVSPYDYNHKRVS [DIB1],2.39 ± 0.066,2.41 ± 0.066,1.61 ± 0.11,2.33 ± 0.087
MVMFMHMAKGLYYGSYR [COB],1.18 ± 0.086,1.16 ± 0.13,1.75 ± 0.22,1.13 ± 0.072
YSKDAKEIYYTPDPSEL [FAS2],2.44 ± 0.026,2.81 ± 0.028,2.6 ± 0.026,2.619 ± 0.024
FRCKETHSYNFMRQNLE [RPC82],2.52 ± 0.078,1.88 ± 0.093,1.96 ± 0.093,2.44 ± 0.065

Sequence,protein stability index (doa10∆),protein stability index (pdr5∆),protein stability index (san1∆),protein stability index (ubr1∆)
QRTLSKSFYSTATGAAS [CYT1],1.98 ± 0.06,2.39 ± 0.054,2.43 ± 0.068,2.39 ± 0.048
QPNARALERYDEAEGRF [SMC1],3.44 ± 0.12,3.58 ± 0.1,3.17 ± 0.074,3.29 ± 0.097
VSFNSKQNEQLHVEQLS [SMC3],2.27 ± 0.071,2.72 ± 0.087,2.47 ± 0.1,2.85 ± 0.066
GQLLKDHLIIEPEEEKS [ARP9],2.15 ± 0.084,1.77 ± 0.066,1.6 ± 0.096,1.71 ± 0.038
IGLLNKSKSSLDGKFSL [RPN2],2.67 ± 0.089,2.85 ± 0.15,2.5 ± 0.14,2.74 ± 0.093
ETSCDNYHPMNIDETSD [SMC4],3.02 ± 0.064,3.16 ± 0.052,3.15 ± 0.041,3.17 ± 0.051
EVSTSTSMTGDANLLEE [SWI3],3.09 ± 0.13,3.23 ± 0.11,3.24 ± 0.042,3.3 ± 0.041
FQAVIQKSINHPPDFKR [SNF2],2.8 ± 0.12,2.98 ± 0.19,3.02 ± 0.14,3.19 ± 0.11
YRVTLESILQMNQGEGE [RPC34],2.94 ± 0.19,3.16 ± 0.092,3.46 ± 0.26,2.97 ± 0.12
GSMFSGDNTSDVDMEDR [RRI1],2.01 ± 0.14,2.55 ± 0.074,2.51 ± 0.12,2.85 ± 0.16
MDFGVDPSMDPELAMAL [RPN10],2.88 ± 0.077,3.15 ± 0.079,2.99 ± 0.074,2.84 ± 0.069
SRIRVKIEGCISQVSSI [RPB7],1.6 ± 0.1,1.75 ± 0.083,1.64 ± 0.11,1.76 ± 0.074
IIKKDEVVKRYLKMRQD [PUP3],3.66 ± 0.2,–,–,–
RVKIANTSAATVHTATS [SSN2],2.86 ± 0.1,2.65 ± 0.051,2.39 ± 0.071,2.52 ± 0.094
DLIETSFTCFAQFVSNK [NUT1],2.64 ± 0.093,2.01 ± 0.075,1.92 ± 0.11,2.77 ± 0.076
ESTTEATGNESQDATKV [YLR335W/NUP2],3.04 ± 0.071,3.23 ± 0.081,3.12 ± 0.11,3.21 ± 0.075
ESGSTPISISNAPTFNP [YAR002W/NUP60],2.25 ± 0.067,2.64 ± 0.061,1.98 ± 0.077,2.63 ± 0.058
LAAPQLVQMYIGEGAKL [RPT5],–,–,2.48 ± 0.26,–
ESQLQMDRTSLRKQYSA [SMC3],2.47 ± 0.08,2.53 ± 0.096,2.75 ± 0.067,2.86 ± 0.094
TKEELESDGRMFIEEPT [SRP54],2.58 ± 0.091,3.11 ± 0.14,2.96 ± 0.099,2.71 ± 0.055
GLARKFHNMLQTLYTGD [SSN3],2.91 ± 0.24,3.25 ± 0.1,3.01 ± 0.077,2.79 ± 0.16
GTLKVILNLYSSAHLIR [YML103C/NUP188],2.07 ± 0.15,–,–,–
NEDARAIFNNEFDSDDD [RPN4],3.09 ± 0.075,2.87 ± 0.096,3.42 ± 0.073,3.41 ± 0.097
RSRMLPTITLDDVYRPA [SNF5],3.12 ± 0.081,3.43 ± 0.085,3.04 ± 0.075,3.06 ± 0.077
FEIIDEASKKSAVKPRP [FAS1],3.21 ± 0.13,3.28 ± 0.14,3.45 ± 0.064,3.3 ± 0.066
NDIHLRFMRFLADRDEF [ECM29],2.44 ± 0.065,2.24 ± 0.059,2.21 ± 0.16,2.5 ± 0.038
